Laboratory results published in patent US20110009342A1, “USES OF PDCD5 POLYPEPTIDE FOR TUMOR CHEMOTHERAPY AND ORGAN PROTECTION” (priority 2008, published 2011).

Key:
U937 xenografts = assay: U937 nude mice xenograft model, DNR; assay type: in vivo, BALB/c nude mice; conditions: fifteenth day; rhPDCD5 40 μg into the tumor, DNR 40 μg intraperitoneal, once a day for 8 days
Protocol: Methods: U937 nude mice xenograft model: BALB/c nude mice (5-6 weeks of age) were pretreated with cyclophosphamide (100 mg/kg, injected intraperitoneally once a day for two consecutive days). On day 3, 1×10^7 (100 μl) of U937 cells were subcutaneously (s.c.) injected into a single flank of each of the mice. The treatments began on day 7 after inoculation when the average tumor diameter reached about 5 mm. The mice were divided randomly into four groups (n=6, i.e., six mice in each group) and treated with normal saline (NS), rhPDCD5 (40 μg, locally injected into the tumor), DNR (40 μg, intraperitoneal) or DNR (40 μg) plus rhPDCD5 (40 μg), once a day for 8 consecutive days.
Tumor volume (V) was determined every other day by vernier caliper measurements and calculated based on the equation of V=ab^2/2, where “a” refers to a long tumor diameter and “b” refers to a short diameter, then tumor volume growth curve was drawn. The percentage of reductions in tumor growth was calculated using the formula: [1-(Tf-Ti)/(Cf-Ci)]×100, where Tf and Ti are the final and initial mean tumor volumes, respectively, of the group receiving a specific treatment, and Cf and Ci are the final and initial mean tumor volumes, respectively, of the NS control group. After the treatment, tumors were collected and weighed and tissues were sectioned and processed by histological hematoxylin and eosin (H&E) staining. Results were statistically analyzed using SPSS 13.0. The measurements were expressed as the mean±standard deviation. Data were analyzed by the single-factor ANOVA and Student's t test and are presented as mean±standard deviation (SD). P<0.05 was considered statistically significant.

Raji cells = assay: colony-forming ability (CFA) assay, ADM; assay type: cell-based
Protocol: Analysis for colony forming ability (CFA): U937 cells (ATCC), in the logarithmic phase, were maintained in RPMI 1640 medium supplemented with 20% FBS and 0.4% methyl cellulose (Sigma) by the semi-solid colony culture method and were adjusted to a density of 5×10^3 cells/mL. The cells were divided into control groups and test groups, and each group was assayed in triple wells. U937 cells in the control groups were treated with DNR alone, with the final concentrations of 0 ng/mL and 0.5 ng/mL. U937 cells in the test group were treated with DNR of various concentrations combined with PDCD5 of various concentrations, while the final concentrations of PDCD5 were 0 μg/mL, 0.625 μg/mL, 1.25 μg/mL, and 2.5 μg/mL, respectively. After incubation for 14 days in a 37° C., 5% CO2 and saturatedly humidified incubator, a colony with more than 30 cells was counted by an inverted microscope in order to analyze colony forming ability of each group. […]
Methods: Colony-forming ability (CFA) assay: Raji cells of logarithmic growth phase were cultured, and the method was the same as that in Example 8. […] The numbers of colonies (containing≧30 cells) were counted by inverted microscope to observe the CFA, which is indicated by the ratio of average number of colony formation in each of the test groups versus that of the untreated control group.

HL60 cells = assay: colony-forming ability (CFA) assay, As2O3; assay type: cell-based
Protocol: Analysis for colony forming ability (CFA): U937 cells (ATCC), in the logarithmic phase, were maintained in RPMI 1640 medium supplemented with 20% FBS and 0.4% methyl cellulose (Sigma) by the semi-solid colony culture method and were adjusted to a density of 5×10^3 cells/mL. The cells were divided into control groups and test groups, and each group was assayed in triple wells. U937 cells in the control groups were treated with DNR alone, with the final concentrations of 0 ng/mL and 0.5 ng/mL. U937 cells in the test group were treated with DNR of various concentrations combined with PDCD5 of various concentrations, while the final concentrations of PDCD5 were 0 μg/mL, 0.625 μg/mL, 1.25 μg/mL, and 2.5 μg/mL, respectively. After incubation for 14 days in a 37° C., 5% CO2 and saturatedly humidified incubator, a colony with more than 30 cells was counted by an inverted microscope in order to analyze colony forming ability of each group. The colony forming ability was shown as the ratio of average number of colony in each group versus that of the untreated control group in which the final concentrations of DNR and PDCD5 were 0 μg/mL.
Colony-forming ability (CFA) assay: HL60 cells of logarithmic growth phase were cultured by a method identical to that in Example 8. The cells were divided into control and test groups (each with 3 wells): In the control groups, the HL60 cells were treated only with arsenic trioxide and the final concentration of which were 0 μg/mL and 0.25 μg/mL, respectively; in the test groups, the HL60 cells were treated with different concentrations of As2O3, which was combined with different concentrations of PDCD5, the final concentrations of PDCD5 were 0 μg/mL, 5 μg/mL, 10 μg/mL and 20 μg/mL, respectively. Cultures were incubated in a 37° C., 5% CO2 and saturatedly humidified incubator for 14 days. The numbers of colonies (containing≧30 cells) were counted on day 14 by inverted microscope. The colony-forming ability was observed as the ratio of the number of average colony formation in the test groups versus that in the untreated control group. […]

U937 cells = assay: cell apoptosis assay, DNR; assay type: cell-based
Protocol: Methods: Cell apoptosis assay: U937 cells (ATCC), in the logarithmic phase, were maintained in RPMI 1640 (Life Technologies, USA) supplemented with 10% FBS (Hyclone, USA), and were adjusted to a density of 2×10^5 cells/mL and then were divided into control groups and test groups. U937 cells in the control groups were treated with DNR (Pharmacia Italia SPA) alone, with the final concentrations of 0 μg/mL, 0.05 μg/mL, and 0.1 μg/mL. U937 cells in the test groups were treated with DNR of various concentrations combined with PDCD5 of various concentrations, with the final concentrations of PDCD5 being 0 μg/mL, 2.5 μg/mL, and 5 μg/mL, respectively. After being incubated for 24 hours in a 37° C., 5% CO2 and saturatedly humidified incubator, the cells were stained with Annexin-V/PI (Biosea) and then were analyzed for apoptosis with a FACSCalibur flow cytometer.

Jurkat cells = assay: FITC/Annexin-V apoptosis by flow cytometry, DNR; assay type: cell-based
Protocol: Methods: The density of Jurkat cells were adjusted by RPMI 1640 medium (Life Technologies, USA) supplemented with 10% Fetal Bovine Serum (FBS, Hyclone, USA). […] Subsequently, DNR (Pharmacia Italia S.P.A) was added with its final concentration of 0.05 μg/mL, and RPMI 1640 medium supplemented with 10% FBS was added to ensure the system to be 1 mL. After 24h incubation, the sample was stained with FITC/Annexin-V (Beijing Biosea Biotechnology CO., LTD) and detected for apoptosis by flow cytometry.

B1: rhPDCD5: recombinant human programmed cell death 5 protein (SEQ ID NO:1) expressed in E. coli and purified (protein, listed as Homo sapiens)
chain: MADEELEALRRQRLAELQAKHGDPGDAAQQEAKHREAEMRNSILAQVLDQSARARLSNLALVKPEKTKAVENYLIQMARYGQLSEKVSEQGLIEILKKVSQQTEKTTTVKFNRRKVMDSDEDDDY
In the case of B1, the “Average size of tumors (mean ± SD)” value (U937 xenografts) is reported as 571.96 ± 237.91 mm^3, the “enhancement of inhibition of CFA by ADM” value (Raji cells) is reported as “can significantly enhance the inhibition of CFA by ADM” and the “enhancement of CFA inhibition by As2O3” value (HL60 cells) is reported as “can significantly enhance the CFA inhibition by As2O3”. The “effect on the CFA of HL60” value (HL60 cells; rhPDCD5 alone) was “no significant affect”, the “enhancement of DNR-induced apoptosis” value (U937 cells) was “can significantly enhance DNR-induced apoptosis” and the “enhancement of DNR-induced apoptosis” value (Jurkat cells) was “can significantly enhance DNR-induced apoptosis”.
